# In patent US20110112279A1 (Genentech, published 2011):
# B1: human STOP-1 short form (L94-K243) with C-terminal His tag, baculovirus expressed (ligand, not shown: small tags and cut ends)
# chain: LRESFEESWTPNYKQCSWSSLNYGIDLGKIAECTFTKMRSNSALRVLFSGSLRLKCRNACCQRWYFTFNGAECSGPLPIEAIIYLDQGSPEMNSTINIHRTSSVEGLCEGIGAGLVDVAIWVGTCSDYPKGDASTGWNSVSRIIIEELPK
# notes: also called #94-243; L94-K243-His
# B2: human STOP-1, full length, C-terminal 8xHis tag (h762HIP; M1-K243-His), expressed in CHO-psgb cells (ligand)
# chain: SEIPKGKQKAQLRQREVVDLYNGMCLQGPAGVPGRDGSPGANGIPGTPGIPGRDGFKGEKGECLRESFEESWTPNYKQCSWSSLNYGIDLGKIAECTFTKMRSNSALRVLFSGSLRLKCRNACCQRWYFTFNGAECSGPLPIEAIIYLDQGSPEMNSTINIHRTSSVEGLCEGIGAGLVDVAIWVGTCSDYPKGDASTGWNSVSRIIIEELPKHHHHHHHH
# notes: The secreted protein purified from medium lacks the signal peptide; Light scattering: about 58% hexamer and 42% trimer; also called UNQ762; full length form
# Legend:
# [1] = target: B1; assay: solution competition phage ELISA (762 S/S): short form coated, phage pre-incubated with short form STOP-1 in solution; IC50 is the STOP-1 concentration
# Description: (§1) The wells were blocked by adding 65 ul 1% BSA for 30 minutes followed by 40 ul 1% Tween20 for another 30 minutes. Next, the wells were washed with PBS—0.05% Tween20 5 times. Various dilutions of F(ab) or F(ab)′₂ phage down to 0.1 O.D./ml in ELISA buffer (PBS—0.1% BSA and 0.05% Tween20) were added to the wells for 15 minutes at room temperature. The wells were then washed with PBS—0.05% Tween20 at least three times. 75 ul of HRP-conjugated anti-M13 antibody (Amersham, 1/5000 dilution with ELISA buffer) per well was added and incubated at room temperature for 30 minutes. The wells were washed again with PBS—0.05% Tween20 at least five times. Next, 100 ul/well of a 1:1 ratio of 3,3′,5,5′-tetramethylbenzidine (TMB) Peroxidase substrate and Peroxidase Solution B (H₂O₂) ((Kirkegaard-Perry Laboratories (Gaithersburg, Md.)) was added to the well and incubated for 5 minutes at room temperature. The reaction was stopped by adding 100 ul 1M Phosphoric Acid (H3PO₄) ((Kirkegaard-Perry Laboratories (Gaithersburg, Md.)) to each well. The optical density of the color in each well was determined using a standard ELISA plate reader at 450 nm. The dilutions of phage were plotted against the O.D. readings.
# (§2) Third, a competition ELISA was performed. 96-well Nunc Maxisorp plates were coated with full length or short form human STOP-1 (2 ug/ml in PBS) at 4° C. overnight or at room temperature for 2 hours. The wells were blocked by adding 65 ul 1% BSA for 30 minutes followed by 40 ul 1% Tween20 for another 30 minutes. The wells were washed with PBS—0.05% Tween20 5 times. […] The unbound phage was assayed by transferring 75 ul of the well mixture to second 96-well plate pre-coated with full length or short form human STOP-1 and incubating at room temperature for 15 minutes. The wells of the second plate were washed with PBS—0.5% Tween20 at least three times. 75 ul of HRP-conjugated anti-M13 antibody ( 1/5000 dilution with ELISA buffer) per well was added and incubated at room temperature for 30 minutes. The wells were washed again with PBS—0.05% Tween20 at least five times.
# [2] = target: B2; assay: solution competition phage ELISA (762 S/F): short form coated, phage pre-incubated with full length STOP-1 in solution; IC50 is the STOP-1 concentration
# Description: as §1, §2
# [3] = target: B2; assay: solution competition phage ELISA (762 F/F): full length coated, phage pre-incubated with full length STOP-1 in solution; IC50 is the STOP-1 concentration
# Description: as §1, §2
# [4] = target: B2; assay: blocking ELISA, legend of FIG. 22
# Description: First, 96-well Nunc Maxisorp plates were coated with full length human STOP-1 (2 ug/ml in PBS) at 4° C. overnight or at room temperature for 2 hours. The wells were blocked by adding 65 ul 1% BSA for 30 minutes followed by 40 ul 1% Tween20 for another 30 minutes. Next, the wells were washed with PBS—0.05% Tween20 5 times. Various concentrations of S4 IgG (in ELISA buffer) were incubated in the wells for 30 minutes at room temperature. Then, S4 (Fab)-phage, S7 (F(ab)′₂)-phage, S9 (Fab)-phage, S16 (F(ab)′₂)-phage or F5 (F(ab)′₂)-phage were added to different wells for 10 minutes at a concentration that would normally produce 90% binding capacity in the absence of the S4 IgG antibody. The wells were washed with PBS—0.05% Tween20 5 times.
# Binding was quantified by adding 75 ul/well of horse radish peroxidase (HRP)-conjugated anti-M13 antibody in PBS plus 0.5% BSA and 0.05% Tween20 at room temperature for 30 minutes (Sidhu et al., supra). […] Next, 100 ul/well of a 1:1 ratio of 3,3′,5,5′-tetramethylbenzidine (TMB) Peroxidase substrate and Peroxidase Solution B (H₂O₂) ((Kirkegaard-Perry Laboratories (Gaithersburg, Md.)) was added to the well. The reaction was stopped by adding 100 ul 1M Phosphoric Acid (H₃PO₄) ((Kirkegaard-Perry Laboratories (Gaithersburg, Md.)) to each well. The OD of the yellow color in each well was determined using a standard ELISA plate reader at 450 nm.
# [5] = target: the molecule itself; assay: self-association; size exclusion chromatography with light scattering
# Description: Full length STOP-1-HIS proteins or various truncations thereof were expressed in SF9 baculovirus-infected cells or CHO cells as described above. The proteins were purified from the media by using Ni-NTA agarose beads as discussed above. The baculoviral-expressed proteins S31-K243-His, E89-K243-His, or L94-K243-His were loaded onto an 8 mm×300 mm Shodex KW802.5 size exclusion column and eluted with 100 mM NH₄HCO₃, 200 mM NH₄Cl pH7.8 at a flow rate of 1 ml/ml. CHO-psgb expressed full length proteins were loaded onto an 8 mm×300 mm Shodex KW804 size exclusion column and eluted with 25 mM sodium phosphate, 500 mM NaCl at a flow rate of 1 ml/ml. CHO-psgb expressed proteins, M1-M54 fused to L94-K243-His, were loaded onto an 8 mm×300 mm Shodex KW802.5 size exclusion column and eluted with 25 mM sodium phosphate, 500 mM NaCl at a flow rate of 1 ml/ml.
# The eluted protein was analyzed by an Agilent Model 1100 HPLC system with an Agilent multi wavelength detector (UV) connected to a Wyatt MiniDAWN laser light scattering (LS) instrument and a Wyatt Optilab differential refractometer (RI). The average molecular weight of the proteins or their aggregates in each peak was determined by selecting a peak and using the Zimm fitting method (Phillip J. Wyatt, (1993) Analytica Chimica Acta 272:1-40) with the Astra software package (Wyatt, USA). The percentage of aggregation was calculated from the integrated peak areas of the UV signal at 214 nm. See FIG. 6 and FIG. 7 for results.
binder,measurement,setting,value
"S4 Fab displayed on M13 phage (V0350-2b-S4) (Fab, V domains shown, Fab on phage: the heavy chain (VH-CH1) is fused to M13 cP3 and the light chain carries a gD tag; also called S4-Fab phage; S4 (Fab)-phage) VH: EVQLVESGGGLVQPGGSLRLSCAASGFTISGSWIHWVRQAPGKGLEWVAWIAPYSGATDYADSVKGRFTISADTSKNTAYLQMNSLRAEDTAVYYCAREGGLYWVFDYWGQGTLVTVSS VL: not shown",IC50,[1],3 nM
same,IC50,[2],719 nM
same,IC50,[3],0.9 nM
"S4 IgG (full-length human IgG1; LPG3-humankappaG6 and LPG4-humanHC-S4), expressed in CHO cells (antibody, V domains shown, also called S4 antibody) VH: EVQLVESGGGLVQPGGSLRLSCAASGFTISGSWIHWVRQAPGKGLEWVAWIAPYSGATDYADSVKGRFTISADTSKNTAYLQMNSLRAEDTAVYYCAREGGLYWVFDYWGQGTLVTVSS VL: DIQMTQSPSSLSASVGDRVTITCRASQDVSTAVAWYQQKPGKAPKLLIYSASFLYSGVPSRFSGSGSGTDFTLTISSLQPEDFATYYCQQSYTTPPTFGQGTKVEIKR",binding result,[4],binds
B1,binding result,[5],binds
"human STOP-1 E89-K243 with C-terminal His tag, baculovirus expressed (ligand, not shown: small tags and cut ends, A mix of trimeric and hexameric complexes by light scattering; also called E89-K243-His; E89humanSTOP-1-pAcGP67B) EKGECLRESFEESWTPNYKQCSWSSLNYGIDLGKIAECTFTKMRSNSALRVLFSGSLRLKCRNACCQRWYFTFNGAECSGPLPIEAIIYLDQGSPEMNSTINIHRTSSVEGLCEGIGAGLVDVAIWVGTCSDYPKGDASTGWNSVSRIIIEELPK",binding result,[5],binds
"human STOP-1 delta-THD (residues 1-54, 94-243, plus His), expressed in CHO-psgb cells (ligand, also called ΔTHDh762HIP; M1-M54 fused to L94-K243-His) SEIPKGKQKAQLRQREVVDLYNGMLRESFEESWTPNYKQCSWSSLNYGIDLGKIAECTFTKMRSNSALRVLFSGSLRLKCRNACCQRWYFTFNGAECSGPLPIEAIIYLDQGSPEMNSTINIHRTSSVEGLCEGIGAGLVDVAIWVGTCSDYPKGDASTGWNSVSRIIIEELPKHHHHHHHH",binding result,[5],binds
"S9 Fab displayed on M13 phage (V0350-2b-S9) (Fab, also called S9 (Fab)-phage) light: not shown heavy: AYAEVQLVESGGGLVQPGGSLRLSCAASGFTISNYGIHWVRQAPGKGLEWVGRISPSNGSTYYADSVKGRFTISADTSKNTAYLQMNSLRAEDTAVYYCAKCSVRFAYWGQGTLVTVSSASTKGPSVFPLAPSSKSTSGGTAALGCLVKDYFPEPVTVSWNSGALTSGVHTFPAVLQSSGLYSLSSVVTVPSSSLGTQTYICNVNHKPSNTKVDKKVEPKSCDKTHL",IC50,[1],> 1000 nM
same,IC50,[2],331 nM
"S7 F(ab)'2 displayed on M13 phage (V0350-4-S7) (other, also called S7-F(ab)'2-phage; F(ab)'2-S7 phage) light: SDIQMTQSPSSLSASVGDRVTITCRASQDVSTAVAWYQQKPGKAPKLLIYSASFLYSGVPSRFSGSGSGTDFTLTISSLQPEDFATYYCQQSYTTPPTFGQGTKVEIKRTVAAPSVFIFPPSDEQLKSGTASVVCLLNNFYPREAKVQWKVDNALQSGNSQESVTEQDSKDSTYSLSSTLTLSKADYEKHKVYACEVTHQGLSSPVTKSFNRGECGASSGMADPNRFRGKDLA heavy: AYAEVQLVESGGGLVQPGGSLRLSCAASGFTISGSDIHWVRQAPGKGLEWVGRISPYGGNTNYADSVKGRFTISADTSKNTAYLQMNSLRAEDTAVYYCARVGGLKLLFDYWGQGTLVTVSSASTKGPSVFPLAPSSKSTSGGTAALGCLVKDYFPEPVTVSWNSGALTSGVHTFPAVLQSSGLYSLSSVVTVPSSSLGTQTYICNVNHKPSNTKVDKKVEPKSCDKTHG",IC50,[1],35 nM
same,IC50,[2],4.7 nM
same,IC50,[3],2.7 nM
"S16 F(ab)'2 displayed on M13 phage (V0350-4-S16) (other, also called S16-F(ab)'2-phage; F(ab)'2-S16 phage) light: SDIQMTQSPSSLSASVGDRVTITCRASQDVSTAVAWYQQKPGKAPKLLIYSASFLYSGVPSRFSGSGSGTDFTLTISSLQPEDFATYYCQQSYTTPPTFGQGTKVEIKRTVAAPSVFIFPPSDEQLKSGTASVVCLLNNFYPREAKVQWKVDNALQSGNSQESVTEQDSKDSTYSLSSTLTLSKADYEKHKVYACEVTHQGLSSPVTKSFNRGECGASSGMADPNRFRGKDLA heavy: AYAEVQLVESGGGLVQPGGSLRLSCAASGFTITNSDIHWVRQAPGKGLEWVATIYPYGGYTYYADSVKGRFTISADTSKNTAYLQMNSLRAEDTAVYYCARGGGMDGYVMDYWGQGTLVTVSSASTKGPSVFPLAPSSKSTSGGTAALGCLVKDYFPEPVTVSWNSGALTSGVHTFPAVLQSSGLYSLSSVVTVPSSSLGTQTYICNVNHKPSNTKVDKKVEPKSCDKTHG",IC50,[1],114 nM
same,IC50,[3],32 nM
B2,binding result,[5],binds
"human STOP-1 S31-K243 with C-terminal His tag, baculovirus expressed (ligand, not shown: small tags and cut ends, Primarily trimeric by light scattering; also called S31-K243-His; S31humanSTOP-1-pAcGP67B) SEIPKGKQKAQLRQREVVDLYNGMCLQGPAGVPGRDGSPGANGIPGTPGIPGRDGFKGEKGECLRESFEESWTPNYKQCSWSSLNYGIDLGKIAECTFTKMRSNSALRVLFSGSLRLKCRNACCQRWYFTFNGAECSGPLPIEAIIYLDQGSPEMNSTINIHRTSSVEGLCEGIGAGLVDVAIWVGTCSDYPKGDASTGWNSVSRIIIEELPK",binding result,[5],binds
